# Values of other authors in paper PMC4103764.
# Target: SARS 3C-like protease (SARS coronavirus) (UniProt P0C6X7)
# Test: ITC
substance,measurement,value
SARS 3C-like protease (from UniProt P0C6X7),Kd,21.4 µM
